The supplement of paper PMC7125110
± gives the standard error. For part of these data: Fewer inactive variants are shown than the library holds.

B1: glmS ribozyme (parent)
chain: AUAAAAGCGCCAGAACUACAGAAAUGUAGUUGACGAGGAGGAGGUUUAUCGAAUUUUCGGCGGAUGCCUCCAAA

Key:
Details in all cases: with glucosamine-6-phosphate
glucosamine-6-phosphate [1] = variants of: B1; assay: KM; higher = weaker cofactor use; RNA array
In short: (§1)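 Weighted Michaelis–Menten fits across concentrations supplied kcat and KM, based on kobs from one- or two-exponential decay fits to normalised per-tile medians. The data came from barcoded ribozyme variants transcribed in situ by E. coli RNA polymerase on sequenced MiSeq chips and tracked at 37 °C by a hybridised Cy3 probe. Glucosamine-6-phosphate (40 μM to 10 mM) in HEPES/KCl/Mg(OAc)2 buffer was flowed in.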

glucosamine-6-phosphate [2] = variants of: B1; assay: self-cleavage kobs at 40 uM GlcN6P; higher = faster cleavage; RNA array
In short: as §1

glucosamine-6-phosphate [3] = variants of: B1; assay: self-cleavage kobs at 160 uM GlcN6P; higher = faster cleavage; RNA array
In short: as §1

glucosamine-6-phosphate [4] = variants of: B1; assay: self-cleavage kobs at 640 uM GlcN6P; higher = faster cleavage; RNA array
In short: as §1

glucosamine-6-phosphate [5] = variants of: B1; assay: self-cleavage kobs at 2500 uM GlcN6P; higher = faster cleavage; RNA array
In short: as §1

glucosamine-6-phosphate [6] = variants of: B1; assay: self-cleavage kobs at 10000 uM GlcN6P; higher = faster cleavage; RNA array
In short: as §1

glucosamine-6-phosphate [7] = variants of: B1; assay: kcat; higher = faster cleavage; RNA array
In short: as §1

Variant	KM (glucosamine-6-phosphate [1]) [µM]	self-cleavage kobs at 40 uM GlcN6P (glucosamine-6-phosphate [2]) [s⁻¹]	self-cleavage kobs at 160 uM GlcN6P (glucosamine-6-phosphate [3]) [s⁻¹]	self-cleavage kobs at 640 uM GlcN6P (glucosamine-6-phosphate [4]) [s⁻¹]	self-cleavage kobs at 2500 uM GlcN6P (glucosamine-6-phosphate [5]) [s⁻¹]	self-cleavage kobs at 10000 uM GlcN6P (glucosamine-6-phosphate [6]) [s⁻¹]	kcat (glucosamine-6-phosphate [7]) [s⁻¹]
A12U G66A	278 ± 130	0.0012 ± 0.00016	0.00266 ± 0.0007	0.00776 ± 0.002	0.00745 ± 0.0017	0.0359 ± 0.012	
A6G U46G		< 1e-05	< 1e-05			7.11e-05 ± 8.7e-06	
A6G U46A		< 1e-05	< 1e-05				
A6C G9C		< 1e-05	< 1e-05	< 1e-05	< 1e-05	< 1e-05	
A6C C10U C67A		< 1e-05					
A6C A36G		< 1e-05	< 1e-05	< 1e-05	< 1e-05	< 1e-05	
A6C A36U		< 1e-05			< 1e-05	< 1e-05	
A6C G40U A42C U45A G59C C61G A64U		< 1e-05			< 1e-05		
A6G G43C		< 1e-05	< 1e-05	< 1e-05	< 1e-05	< 1e-05	
A6G U31A G32U		< 1e-05	< 1e-05	< 1e-05	< 1e-05	< 1e-05	
U54A C61A	864 ± 400						
G7A C16A	275 ± 120						
G66C C68U C71G			< 1e-05				< 1e-05
C68G C70A		< 1e-05				< 1e-05	< 1e-05
A6G G32A G37C U46G C58A C67G		0.000232 ± 6.3e-05		0.000494 ± 0.00014		0.000132 ± 3.3e-05	
A6C G35U A36G G63U		< 1e-05					
C68U C71U	1240 ± 180			4.62e-05 ± 4.3e-06	0.000103 ± 7.4e-06	0.000123 ± 6.6e-06	0.000142 ± 7.2e-06
C68U C71A							1.12e-05 ± 6.7e-07
A6C A14C U31G A48G G51U C58U C61A		8.19e-05 ± 3.4e-05					
A6C G7C A42C C71U		< 1e-05				< 1e-05	
U69C C70A				7.51e-05 ± 2e-05	4.46e-05 ± 2.2e-05	5.64e-05 ± 1.2e-05	5.97e-05 ± 1.3e-05
A6G A33U A53U		< 1e-05				< 1e-05	
C67G C71A							< 1e-05

Variant	KM (glucosamine-6-phosphate [1]) [µM]	self-cleavage kobs at 40 uM GlcN6P (glucosamine-6-phosphate [2]) [s⁻¹]	self-cleavage kobs at 160 uM GlcN6P (glucosamine-6-phosphate [3]) [s⁻¹]	self-cleavage kobs at 640 uM GlcN6P (glucosamine-6-phosphate [4]) [s⁻¹]	self-cleavage kobs at 2500 uM GlcN6P (glucosamine-6-phosphate [5]) [s⁻¹]	self-cleavage kobs at 10000 uM GlcN6P (glucosamine-6-phosphate [6]) [s⁻¹]	kcat (glucosamine-6-phosphate [7]) [s⁻¹]
A6G C8U		< 1e-05			< 1e-05	< 1e-05	
A6G G7A G51C		< 1e-05				< 1e-05	
A6G A12C G35A G41U C71A		< 1e-05					
A6G U30C G35A A39G G40A G66A		< 1e-05				< 1e-05	
A6G G35C		< 1e-05	< 1e-05	< 1e-05	< 1e-05	< 1e-05	
A6C C8U A15G		< 1e-05				< 1e-05	
A6G G13U G38U G40U		< 1e-05				< 1e-05	
A6G G29U G35A C50G G51U G66U C71U		< 1e-05					
A6G U49C		< 1e-05	< 1e-05	< 1e-05	< 1e-05		
A6U A12G A42C A52U A64G C68G		< 1e-05			< 1e-05	< 1e-05	
C67A C70G				4.26e-05 ± 9.9e-06	2.92e-05 ± 7.8e-06	3.34e-05 ± 5.8e-06	3.41e-05 ± 3.9e-06
G66U C67U	1130 ± 66	3.44e-05 ± 7.1e-06	0.00011 ± 1.3e-05	0.000333 ± 4.2e-05	0.000607 ± 8.4e-05	0.000831 ± 7.9e-05	0.000913 ± 3.1e-05
A1C C11U A64G		8.55e-05 ± 2.5e-05				0.00142 ± 0.00035	
A6G G40C U47G U49G C58G C68A		< 1e-05				< 1e-05	
A6G A14U G40C C67G		< 1e-05		< 1e-05			
U2C G7C A42G U56A C61A		< 1e-05				< 1e-05	
A6U A42G G43C		< 1e-05					
A6G A42U C58U		< 1e-05					
A6C C11G U30G G35U C50G C58G		0.00011 ± 2.3e-05			0.000242 ± 4.4e-05	0.000175 ± 5.1e-05	
G40A G59A	1080 ± 65						
A6C A48C		< 1e-05	< 1e-05	< 1e-05	< 1e-05	< 1e-05	
A6C A42G		< 1e-05	< 1e-05		6.82e-05 ± 1.8e-05	9.6e-05 ± 1.1e-05	
A6C C10G G41A U49G G60A		< 1e-05					

Variant	KM (glucosamine-6-phosphate [1]) [µM]	self-cleavage kobs at 40 uM GlcN6P (glucosamine-6-phosphate [2]) [s⁻¹]	self-cleavage kobs at 160 uM GlcN6P (glucosamine-6-phosphate [3]) [s⁻¹]	self-cleavage kobs at 640 uM GlcN6P (glucosamine-6-phosphate [4]) [s⁻¹]	self-cleavage kobs at 2500 uM GlcN6P (glucosamine-6-phosphate [5]) [s⁻¹]	self-cleavage kobs at 10000 uM GlcN6P (glucosamine-6-phosphate [6]) [s⁻¹]	kcat (glucosamine-6-phosphate [7]) [s⁻¹]
G40U C58G	4730 ± 1300						
A6C C10U A33G G41U U47G U55C		< 1e-05		< 1e-05		< 1e-05	
A6G A15C U31C A42C		< 1e-05				< 1e-05	
A6U A12U G32C A33C C50A		< 1e-05				< 1e-05	
A6C A52G A53G		< 1e-05					
A6U A36U		< 1e-05	< 1e-05	< 1e-05	< 1e-05	< 1e-05	
C67U C71A			6.95e-05 ± 1.8e-05	6.34e-05 ± 9e-06	0.000131 ± 1.6e-05	0.000168 ± 2.2e-05	0.000182 ± 3.8e-05
A6C G32C C58G		< 1e-05		< 1e-05	< 1e-05		
A6C U31C G59U		< 1e-05					
A6C A15G U45G		< 1e-05	< 1e-05				
A6G G44U C58U G63U		< 1e-05			< 1e-05		
A6G A33G G35U C68G C70U		6.36e-05 ± 1.8e-05				0.000167 ± 3.1e-05	
C11A A33U	983 ± 40						
C67U C68A				4.09e-05 ± 9.8e-06	5.66e-05 ± 7.5e-06	2.96e-05 ± 8.7e-06	4.58e-05 ± 9.2e-06
C67U C68G				3.49e-05 ± 1.2e-05	2.57e-05 ± 1.2e-05		2.52e-05 ± 6.7e-06
C67A U69C		0.000527 ± 0.00011		0.0019 ± 0.00079		0.00665 ± 0.0025	0.00359 ± 0.0017
A39U A52C	2300 ± 420						
A6G A42G C50A U54C C70G		< 1e-05	< 1e-05	< 1e-05	< 1e-05	< 1e-05	
A6G G66U		< 1e-05	< 1e-05	< 1e-05			
A6G U57C		< 1e-05	< 1e-05	< 1e-05	< 1e-05		
A6G U31C C71U		< 1e-05					
A6G G9C G59U		< 1e-05			< 1e-05		
A15G U54A	508 ± 200	0.000663 ± 0.00011	0.00251 ± 0.00049	0.006 ± 0.0015	0.00683 ± 0.0018	0.0333 ± 0.014	

Variant	KM (glucosamine-6-phosphate [1]) [µM]	self-cleavage kobs at 40 uM GlcN6P (glucosamine-6-phosphate [2]) [s⁻¹]	self-cleavage kobs at 160 uM GlcN6P (glucosamine-6-phosphate [3]) [s⁻¹]	self-cleavage kobs at 640 uM GlcN6P (glucosamine-6-phosphate [4]) [s⁻¹]	self-cleavage kobs at 2500 uM GlcN6P (glucosamine-6-phosphate [5]) [s⁻¹]	self-cleavage kobs at 10000 uM GlcN6P (glucosamine-6-phosphate [6]) [s⁻¹]	kcat (glucosamine-6-phosphate [7]) [s⁻¹]
A6G A15U C34A		< 1e-05	< 1e-05	< 1e-05	< 1e-05	< 1e-05	
A6U A33U G38U		< 1e-05	< 1e-05	< 1e-05			
C67A C68U	497 ± 200		3.25e-05 ± 7.3e-06	6.61e-05 ± 5.3e-06	0.000126 ± 9.8e-06	0.000106 ± 1e-05	0.000125 ± 1.7e-05
C67A C68G			4.13e-05 ± 1.5e-05	5.98e-05 ± 1.7e-05	5.59e-05 ± 1.3e-05	2.51e-05 ± 1.1e-05	4.23e-05 ± 1e-05
A6U C11A A53U		< 1e-05		< 1e-05		< 1e-05	
A6C U49G		< 1e-05		< 1e-05			
U47A A64G	787 ± 380	0.000468 ± 8.5e-05	0.00141 ± 0.00037	0.00552 ± 0.0012	0.00614 ± 0.0013	0.0238 ± 0.0074	
A6G G44C		< 1e-05	< 1e-05	< 1e-05	< 1e-05	< 1e-05	
A6G G44A		< 1e-05	< 1e-05	< 1e-05	< 1e-05	< 1e-05	
A6C A33U		< 1e-05		< 1e-05	< 1e-05	< 1e-05	
A6C G62U		< 1e-05	< 1e-05		< 1e-05	< 1e-05	
A6C U57G		< 1e-05		< 1e-05			
A6C U31C C68G		< 1e-05					
A6C G13U C34G G60C		< 1e-05					
A6G G29A C34G		< 1e-05		< 1e-05	< 1e-05	< 1e-05	
A6C G62A G66C U69A		< 1e-05				< 1e-05	
A6C G32C U47A		< 1e-05		< 1e-05	< 1e-05		
A14G U31C	891 ± 450	0.0012 ± 0.00019	0.00337 ± 0.00062	0.00963 ± 0.0011	0.0154 ± 0.0043	0.05 ± 0.013	
A6C A12G U56C		< 1e-05				< 1e-05	
A6C G7C A39C G41C C61U		< 1e-05					
A6G G60U C68A		< 1e-05		< 1e-05	< 1e-05	< 1e-05	
